Results published in the DeepSol protein solubility set.

Test: soluble on expression in E. coli; label from the status in PepcDB or PDB records

| Sequence | soluble on expression in E. coli |
| --- | --- |
| MLFLDKNLELNDTELDIYNYIVANLEKVVYMRIRDLATEAHVSTTTILRFCRKFGCNGFSEFRVKLQLYLEEQKLAQIDMADETTYIDFLKRTAQPEFKAQIQNAVEILRDRELVLFAGVGSSGVIAEYGAIYFSSLFTLALHIEDPLNHPFYHLSSKLSDKICMIAISVEGENEDIIRYIHQLKAQNCKVISITNSAKSTIARLSDANIAYYINKEMYQEANITSQLPALYTIENIAREIRTQIDKEKM | not soluble |
| MTTNNDFYFALLRISILQLLKAQGFDRARPSLVDVMTDLYAKFLSLLASEVSSIAQARCDQDDTIALQDITLALENLGIVKPTNVLDVYDENSELSSSRGMEKFKDWCIYSTQLTDARITALPTVELLQSEEKESDPLSAIPDYLNQLLQNKGAKQKLETKNRKTELIEDLINNNGLDDWIKLVIARQRINMIERASKKESQNVPALPHIAGYKSSILSRHHHTTITNEDRMPSAMTPRDEDALTEIQENPFVTSKLPIMRKENRLENITLSFEDEELESLGEVEGPNQKSQENNNEESFKENNKSLTESPHGDDRDISMFQFDSNVDTKWAEQEDMDSTFQRRTSLDYGGYF | not soluble |
| MKAKTLIDAYEAFCPLDLSMEGDVKGLQMGSLDKDIRKVMITLDIRESTVAEAIKNEVDLIITKHAPIFKPLKDLVSSPQRDILLDLVKHDISVYVSHTNIDIVPGGLNDWFCDLLEIKEATYLSETKEGFGIGRIGTVKEQALEELASKVKRVFDLDTVRLIRYDKENPLISKIAICGGSGGEFYQDAVQKGADVYITGDIYYHTAQEMLTEGLFAVDPGHHIEVLFTEKLKEKLQGWKEENGWDVSIISSKASTNPFSHL | not soluble |
| MVDNTSLSFEQIADFCGLHPLEVRGIADGEVARDIRGADPIGNGQLNREELDRAQANPDYRMKALVSRHAELLKPAKKAPRYTPVSRRQDRPDAIAWFLRHHPEVTDAQISKILGTTKATIEQVRARTHWNAANIKPVDPVTLGLVGQLELDALVKKAAEKKAKDDLKKGIVPEDPTLRPASEAGQFEPEVEEEEEDFRAPRGDLKAEDVFGKSTGYVDEEDEDLEHHHHHH | soluble |
| MDSIGGVLNTMKKNLLITLALIIMSHHSAYAQDELTYIPIPKANQIADLNDLDKDGVINARDLCAGTPIGAEVDNDGCETYLHKEEQYQLK | not soluble |
| MGSDKIHHHHHHGGCVRDVIDDVPGTDEDYAADKKDVVLIRMGTNDAEVKDITSRLFNNIPSSWEIGKKTIVDYDKMKDPETELNADIKNPKIYMTVILNIDDVISGKYPISLFRMLKFYKRDFYVIATQSTPEQKEEMLSLIGVYMEAGYYAINYDNVQHYRIFPSADPYAKDNMIGKGVASFNQKLLTRSADTLPEGNDPDPGYNAQMADKEALKRIEIYNRIYGYAQGDMNYSMQAVPYKMKPGAAPDVIIDNSWAIDAYNFQIYSKNNNCILSITNNAGNGFTANIKDYTTPKGANVYAYIWNLMREASSEITVHSDGGIFREISYQPQTVNHGASYTENSFWKVSVSVSPTKLEDKPWEAFKVSFGKESSTEVSYKTKSMDYSCKGQFGNGLYSKLWQFIPGEFYDRAEAFVYETSQGLRWIDAAQAMTPNYVTWGGWTLRQNYLNHINNSMKLHQQQCIYSLESDAQPGVVSVAITDAIDLQKTYVHYNCGIRYGHDSARTDLKMSKMVWIDFRQWDN | not soluble |
| MGSDKIHHHHHHMIDSMTHRKLSNTAQRPSPTRPRHGANATWRMLSVSALMLAMASTATWASDVKSQQTQAADIARNMANNTDTCYVEGVSDRLNCGFVTVPENPNKPDGKQIQVHYVVLPAVKNVNHEEALLAIAGGPGQSAIDNAAGFDAMLSKVRQQRDILLIDQRGTGRSNLLTCDEGAQSPLSFDDDNADTLAETQKCLAKIDADVTQYGSLNAIKDFEAVRQHLGYKKLHIYGISYGTRMAQLYMRLYPAHLATVTLDGIVPMQQSVLEIGASIDRGFDLLFKDCQETTACHAQFPELKAEFDQVAASLAKAPVMENVYDPVTGEKTMLTMTRGKFYGSIRMALYQANVRALVPHAIHQAAKHNFQPILGLYSLTTDNAGMAMGMHASVVCGEDMPRITPAMREQAQHSFMGKTMLEGLEATCEVWKVPAVDDSFSEPISSDIPTLLLSGEIDPATPPSWGELAMEKLTNAKHFVAPYATHGVAYQSCANNLIADLVRSGSVKDLDGECLKKDVRRSFYLNASSVEPLDATSTKTTDDNASTGAKE | not soluble |
| MSLNKKLYIGMVGILSLMMVGCNKSLAKVNDVEITKEQYKKTKAVLSATNNYINGQSLDELEKTLDKKGRNKLENVIISFMVDNELLYQEAKDKGLTPSKSEVDSKYQELEDKMNLNTSYKEKMDKAGVDKDYLKQEISRDLAIDKNKKAFEDRINISDNDMEAYYTSHKKDFNVEEVSASQILISTLDKNKKEVSKDKKEALKKKADNILTKIKNGESFESLAKKYSDDKATGKNGGQLGYFTKDDKNAEFTKEVFKLKKNEVSNVFETSYGYHIVKVTDKRERQKSFNECQSLIRESILNEKYIEHIKKLNEDAKIDREGHHHHHH | soluble |
| MYLVTGATGQLGLRVVRRCITLGLPVRAFVRLTSQYELLKEWGAEIFIGDLQQPRDIQAAMKGVEAVICCHGSQLLSRAIQAIDYRATLDVIQAAQEQGVRYLTLISPLAVTGDRQQSPFLKAKYEVEQVLISSGLNYSIFRCPTLMSSLLPLAERFQQTGVYIVLGDPQHRLQLLSPDDLARCILIASQASQPAIFSMAHPEVFTRQEIADRLGRFFNRRPFVMTVPLSVIDGARQFLGVMSRDLDASLGTLRTLLAYESLCPASEIERAQTYFQLSFESLETFLGRYFLEHHHHHH | not soluble |
| MTLRAARPEFLDLFPAGAEARRLADGFTWTEGPVYVPARSAVIFSDVRQNRTWAWSDDGQLSPEMHPSHHQNGHCLNKQGHLIACSHGLRRLERQREPGGEWESIADSFEGKKLNSPNDVCLAPDGSLWFSDPTYGIDKPEEGYGGEMELPGRWVFRLAPDGTLSAPIRDRVKPNGLAFLPSGNLLVSDTGDNATHRYCLNARGETEYQGVHFTVEPGKTDGLRVDAGGLIWASAGDGVHVLTPDGDELGRVLTPQTTSNLCFGGPEGRTLYMTVSTEFWSIETNVRGLEHHHHHH | soluble |
| MRKLKMMLCVMMLPLVVVGCTSKQSVSQCVKPPPPPAWIMQPPPDWQTPLNGIISPSGNDWLEHHHHHH | not soluble |
| VRILATVAATAAAVAALITPAHADGPLGVKGDTLTLPLADAITALPVAEESRAGYQRSAFKHWVDADKDGCNTRSEVLKAEAVVAPEQGTRCKLSGGQWYSAYSNTYVNSASALDLDHLVPLAEGWDSGASAWTAKEREAYANDLGDDRSLIAVTAATNRSKADQDPAEWLPPYEPYHCQYLTDWIATKLRWQLTVDQAERDTLTQATTSCPNLPVEVTLAR | soluble |
| GPSPVGQQYHVEKFSGLRIRKPRVSSSEMERKMNGRKLIRLAQLQNKIATEKLEEEDWVTFGVIVKKITPQSSNNGKTFSIWRLNDLKDLDKYISLFLFGDVHKEHWKTDQGTVIGLLNANPMKPKEGTDEVCLSVDNPQKVLLMGDAVDLGTCKARKKNGDPCTQMVNLNDCEYCQYHVQAQYKKVSSKRADLQSSYSG | soluble |
| MAGDPMIMVNLRIINFIGDIMKIRGICYRCGAEDELIDGLCPICYAQEHPLIEVPDRVEIEVCHMCGSYKRKIWQTPKSEEAFEILNEIAYYATKDAIKKKSVMVEVEIYPEVTQLPGGKRSKLIIPVHIVARGRLPGEKEDRTYEKDIEVHLRMVQCPRCSRFMSNYYEATLQVRAMNRYLTEEEREELDNFVREELAKRLKKDRMAFIAKFIPQKEGLDYQLGSVGAARNVAQRIKEKYGGKITETATLVGVDRDSGKELYRVTVSVRVPEYKVGDVVEYKDKYYLVTAITEDKVYMKSIDYKREKIGLAWHIAEKETKMAKKKDELDTATVIATTPTIMVMDDKSYEVYEFDNIGDVKIKEGDKVKIFKKEGVSYLVNKIEGKDKQLEHHHHHH | soluble |
| MTQEYQLRILPEIAANEQRLKEYISKEKGINLRNITATRILKRSIDARQRTIFVNLKVRAYINEMPKEDEFERTIYNNVEGKPQVIVVGAGPGGLFAALRLIELGLRPIIVERGKDVRERKKDLAQISREHTVDPESNYSFGEGGAGAYSDGKLYTRSKKRGNIDKILNVFCQHGASAAILADAHPHIGTDKLPRVIENMRNTIIECGGEVHFQTRMDALIIENNEIKGIETNTGKTFLGPVILATGHSARDVYRWLAANGVTIEAKGIAVGVRLEHPAMLIDQIQYHNKNGRGKYLPAAEYSFVTQAEGRGVYSFCMCPGGFIVPAASGPEQVVVNGMSPSNRGSRWSNSGMVVEIQPEDFISGELKMESGELAAQQNAQLLAINPLLSNSQLSTLKTQLTPLHFQEELERQCWLQGGRRQTAPAQRMLDFTRKKLSFDLPESSYSPGLISSPLHFWMPDFISKRLSLGFQQFGRTSHGFLTNEAVMIGVETRTSSPVRIVRDKETLQHVTVRGLFPCGEGAGYAGGIVSAGVDGERCAEAVANYINHLEHHHHHH | not soluble |
| MSLSARSSHLSQPVVKSVLVYRNGDPFYAGRRVVIHEKKVSSFEVFLKEVTGGVQAPFGAVRNIYTPRTGHRIRKLDQIQSGGNYVAGGQEAFKKLNYLDIGEIKKRPMEVVNTEVKPVIHSRINVSARFRKPLQEPCTIFLIANGDLINPASRLLIPRKTLNQWDHVLQMVTEKITLRSGAVHRLYTLEGKLVESGAELENGQFYVAVGRDKFKKLPYSELLFDKSTMREGHHHHHH | not soluble |
| MHLRLRTKNGLITITVSQQCTIRELSEEIERKTGIEVAKQKILYGFPQRELRADADKPVESVLQSGDSLTVDKLSAETEQERTVESSPASTENAYVRRKVPDDNSCLFHAICYVFRSGSVAQLRHIISETVRLNPDLYTEAFLGKSNHEYSRWILLPETWGGAIELSILSKYFQTEISVFDIQTLRLDRYGEAENYEERVFLLYDGIHYDPIARAFLGASREYDVTVFKIWDNEALVGAKSVAEEANKNRQYTDLASFTLMCRNCGAKLKGETSAVEHAKQTGHTNFTEA | not soluble |
| MSEELEYLKVLLYASQVEAQKLRKQKEEKDALLKTFQVKLEVEALGNLPAQRNLSEDISKREIQSLKKQVTVLKEEIGLEGSKLAIANAVQEQLKTDLADEKEKCRFTREVTKLYQMNIQLDQPSRDQVADYLQFEIRTVKEVLRQKEEELEKLMAENKYNYFENCAEKCRIQEETSAARREADLLRDEMKTLVKNMNAKSEELLGQLRDSTEKCEEMEIDCNIQLLELQKRHELLNYYASLG | not soluble |
| MAGDPNSMKRKPAVAGLFYPSRRDELIEQIRMCFLDKRIGPGKLPGPVETKLQNPIGLVSPHAGYIYSGPVAAWGFLEAVKFGEPSVVVIIGPNHTGLGRPVGVWPEGEWETPLGTVPVNERAVEIVLSNSRYAEEDFMSHIREHSIEVQIPFLQFVFGEVSIVPICLMDQSPAVAEDLASALAKLVAEFPGVLIIASTDLNHYEDQRTTLRKDSYIIEAIEGMDPSLLYEYLVREDISMCGYGGVATLLNMDFENVRILKHATSGDVSGDTLEVVGYLSAILFLEHHHHHH | not soluble |
| MLEKELSFADLSISLSELYEAMGYADAVPDEAVEKEVRGVLGRVEAVTSPRFCFFISGGELDESKDSLSVGDTCFSIGKIITRQLRGSESFAFFAATAGTGFERFQHTLQQEGDMVKVYIADAIGSVIAEKTADCMEIALDEYIRDRGWRHTNRFSPGYCGWHVSEQKKLFPLFPSAEPCGIRLTDSGLMLPIKSVSGVIGLGDGVRKLEYTCGLCTYDRCYRRKQRGLEHHHHHH | soluble |
| MNTLGLYQSDWSKAPPHAHAYHVKTTREQGHYHLIEGFTQPANGSNTDQHTHYYTGITSFENGHFHRYYGISGPAIPLADGTHYHEIEETTYLAYNEPIEIQYGGVVYDPGDDRRKTHRHTLKGKTREIVGNEPLGR | soluble |
| MSRPLGFIGYEFGDDEMFVQQMIEKKSNAEQAKMLEQQKKMLECTETMPEESEPVPMKCLDFEEAFQSESVSKGYESPYKNISFLKEDAVTVNTMSHCPADDIAKLIRNIQNSVYTLGIEEARQCRRGKLLNVLKPTGSASPRYLQPTPPKNVAEETTGSQ | not soluble |
